Measured values taken from patent publication US20190064149.

Molecular target: EphA2 having Myc-labeled C-terminal

Protein | EphA2 processed fragment, western blotting
MT6-MMP (protein) YALSGSVWKKRTLTWRVRSFPQSSQLSQETVRVLMSYALMAWGMESGLTFHEVDSPQGQEPDILIDFARAFHQDSYPFDGLGGTLAHAFFPGEHPISGDTHFDDEETWTFGSKDGEGTDLFAVAVHEFGHALGLGHSSAPNSIMRPFYQGPVGDPDKYRLSQDDRDGLQQLYGKAPQTPYDKPTRKPLAPPPQPPASPTHSPSFPIPDRCEGNFDAIANIRGETFFFKGPWFWRLQPSGQLVSPRPARLHRFWEGLPAQVRVVQAAYARHRDGRILLFSGPQFWVFQDRQLEGGARPLTELGLPPGEEVDAVFSWPQNGKTYLVRGRQYWRYDEAAARPDPGYPRDLSLWEGAPPSPDDVTVSNAGDTYFFKGAHYWRFPKNSIKTEPDAPQPMGPNWLDCPAPSSGPRAPRPPKATPVSETCDCQCELNQA | a processed fragment of EphA2 (small arrow) was detected only in the MT1-MMP-introduced cells
MT4-MMP (protein) QAPAPTKWNKRNLSWRVRTFPRDSPLGHDTVRALMYYALKVWSDIAPLNFHEVAGSAADIQIDFSKADHNDGYPFDGPGGTVAHAFFPGHHHTAGDTHFDDDEAWTFRSSDAHGMDLFAVAVHEFGHAIGLSHVAAAHSIMRPYYQGPVGDPLRYGLPYEDKVRVWQLYGVRESVSPTAQPEEPPLLPEPPDNRSSAPPRKDVPHRCSTHFDAVAQIRGEAFFFKGKYFWRLTRDRHLVSLQPAQMHRFWRGLPLHLDSVDAVYERTSDHKIVFFKGDRYWVFKDNNVEEGYPRPVSDFSLPPGGIDAAFSWAHNDRTYFFKDQLYWRYDDHTRHMDPGYPAQSPLWRGVPSTLDDAMRWSDGASYFFRGQEYWKVLDGELEVAPGYPQSTARDWLVCGDSQADGSVAAGVDAAEGPRAPPGQHDQSRSEDGYEVCSCTS | a processed fragment of EphA2 (small arrow) was detected only in the MT1-MMP-introduced cells
